PMC12196904

Molecular target: T1, OsARF25 B3 domain (OsARF25 123-243-GST) (Oryza sativa) (UniProt Q2QM84)
T1 sequence: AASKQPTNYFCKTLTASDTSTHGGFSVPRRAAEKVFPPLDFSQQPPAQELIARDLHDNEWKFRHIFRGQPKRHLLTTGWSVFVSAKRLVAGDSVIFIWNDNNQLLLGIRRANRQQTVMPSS
Assay: EMSA
Conditions: 20 uL: 50 ng probe, 2 ug protein, 2 uL 10x buffer (100 mM Tris, 500 mM KCl, 10 mM DTT, pH 7.5) plus 1 uL each of 1 M KCl, 50% glycerol, 0.5 M EDTA

Sequence	binding
GAGTTTTATATACATACAGAGCACATGCGGCATCAATGAGCAACAGGGTTTGCATGCGTTGCTGCTGCTTGAGTTCTAGTATTAGTATTTTTATTTCATCTTAATGCTTGAGCCAATAGTTCCTGAGCTGAGACATGTGCAGAAGTATCTCGTCTCGGCCTTGATTGGTGACACTGCTCGTCATGATCCAAGGGGGTGCTGCCTCAAAATATTCACGGATCGAATTCAAGCTTTTCAATTCATCA (double strand) [proOsOFP04 probe]	binds
TGATGAATTGAAAAGCTTGAATTCACTTCACATGCCGGCCACAATTACGGCGTTATTAGGCGGGACATGGGCATAGGAAAACCGGAAAGGTGTCCAAGGCGTTGCAGAGAATGTAGTGTGTCGGTCATAGGCTGCAAGCGAGTGCACTCCCACTTGCACCCAGGGATATATATTATCGTCATGCATGTGCCTTATGCTCTTGTCAAGCAATATTTTTTGGCAAGGCATGTGCTCTGTATGTATATAAAACTC (double strand) [proSG1 probe]	binds
